We go through 31 sequences from the supplement of paper PMC9170038.

In the data set the test system is MS2 coat protein. The data set can be described thus: apparent KD of MS2 coat protein; designed switch direction (-1 OFF switch, 1 ON switch): -1; higher = weaker reporter binding. The procedure, abridged: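 An oligonucleotide input, 200 uM small-molecule ligand, or no input was present during titration of SNAP-549-labelled MS2 coat protein, which was doubled from 0.7 or 1.5 nM to 3 µM. Designed RNA switches had been transcribed on Illumina chips by stalled E. coli RNA polymerase. Apparent KD per design is the median over clusters of curves fitted to normalised cluster fluorescence.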

The mark [1] stands for this setting: Eterna round: R95, input ligand: microRNA oligo, concentration not stated.
The mark [2] stands for this setting: input ligand: microRNA oligo, concentration not stated.
Setting [3] is: Eterna round: R95, input ligand: FMN 200 uM.
Setting [4] is: Eterna round: R95, input ligand: none.

Regarding “AAAUAGUAGCAGGAUAUGAGUAUUAUUGGAAGCUCAGAAGGGCUGACAUGAGGAUCACCCAUGUGUUAUGUCGG [Eternabot (L1) Solution 54] (Eterna round: R97, puzzle: Exclusion 6)”, the “apparent KD of MS2 coat protein” value turned out to be 49.1 nM (input ligand: FMN 200 uM) and 177 nM (input ligand: none).
As to “CUCUUGUGAGGAUAUCAGGUGUGCUAGCGUACUGGUACAUCUGAGAAGGCACAUGAGGAUCACCCAUGUUUCUU [JL-ex4-3.21 Brourd mod] (puzzle: Exclusion 4)”, the “apparent KD of MS2 coat protein” value under setting [1] stood at 78.1 nM.
Consider “CCAUAUAACUGAGGAUAUACGCACCACUAACUAGUAGAAGGCAGACAUGAGGAUCACCCAUGUGAUUUCUCAAUAUUAUACAUC [Prohibition 74 - Jieux - Exclusion NG 1] (Eterna round: R96, puzzle: Exclusion NG 1)”, for which the “apparent KD of MS2 coat protein” value was determined as 927 nM (input ligand: FMN 200 uM), 357 nM under setting [2] and 775 nM (input ligand: none).
Take “AUUAUAUAGAGAGGAUAUAGAAUAUUAUUUUAACAUGAGGAUCACCCAUGUAACCUUAUGUGUAGCUAGAAGGCUCAUUUAUUA [Title] (Eterna round: R96, puzzle: Exclusion NG 2)”: under setting [2], the “apparent KD of MS2 coat protein” value was 33.9 nM.
Regarding “GUCAUCACACAUGGGAUCAACAUGAGGAUCACCCAUGUUGCCAAGUUGUUUGCACGUCUUAUCAUACGUUUUUCGAG [Mod-Jxh] (Eterna round: R97, puzzle: Sensor, turn-off variant 1)”, the “apparent KD of MS2 coat protein” value is, setting by setting: (input ligand: FMN 200 uM) 22.9 nM; (input ligand: none) 23.2 nM.
Take “UUUUUACGAGGAUAUCGUUUUUUUCACAUGAGGAUCACCCAUGUUGUUUAUGUUUCGUUGCGAGAAGGCGUUUGUU [JR_E5_Sub064] (puzzle: Exclusion 5)”: the “apparent KD of MS2 coat protein” value under setting [1] is 24.3 nM.
In the case of “AGAUUACGUUAGGAUAUCCGGCCUGACGAGGAUGGAGAAGGAGCGACAUGAGGAUCACCCAUGUGUGGCACUCC [Eternabot (L1) Solution 76] (Eterna round: R97, puzzle: Exclusion 6)”, the “apparent KD of MS2 coat protein” value is, setting by setting: (input ligand: FMN 200 uM) 17.7 nM; (input ligand: none) 18.3 nM.
Consider “GCCGAUUAAGUGAGGAUAUACCUAUGGAUACAUAGGUAGAAGGCACAUGAGGAUCACCCAUGUUCCUCAUCGGC [Fiskers BMX 4 - 11] (Eterna round: R96, puzzle: Brourd's mod of Exclusion 4)”, for which the “apparent KD of MS2 coat protein” value (input ligand: FMN 200 uM) amounted to 155 nM, the “apparent KD of MS2 coat protein” value under setting [2] is 16.5 nM and the “apparent KD of MS2 coat protein” value (input ligand: none) worked out at 21.3 nM.
Turning to “AACACUGUAGGAUAUCAUGAACUGGACUUGAGGAUCACCCAAGUGUAUCCUGGAGUGCCGUGAGAAGGACGGAAAA [Erzalelaan] (Eterna round: R97, puzzle: Exclusion 5)”, the “apparent KD of MS2 coat protein” value runs as follows: (input ligand: FMN 200 uM) 56.5 nM; (input ligand: none) 46.9 nM.
Take “UUUUAGCAAGCGAGUAUUAACAUGAGGAUCACCCAUGUGCAUCCAGUAUUACUUUUAGAUCUUGCUCGUCUUAUAUA [JR_STOV1_v2_Sub083] (Eterna round: R97, puzzle: Sensor, turn-off variant 1)”: the “apparent KD of MS2 coat protein” value worked out at 339 nM (input ligand: FMN 200 uM) and 381 nM (input ligand: none).
As to “UAAUAUCUGCAGGAUAUCGGUGUAGCACGCGUAUGAGAAGGGCAGACAUGAGGAUCACCCAUGUAUAGGGUCCG [BotMod 1 - Jieux - Exclusion 6] (Eterna round: R97, puzzle: Exclusion 6)”, the “apparent KD of MS2 coat protein” value is, setting by setting: (input ligand: FMN 200 uM) 246 nM; (input ligand: none) 49.4 nM.
For the sequence “UUUUUAUAUGAAGGAUAUACUUAACAUGAGGAUCACCCAUGUGGUGUUGUGAGUGAGUGAGUUUAGUAGAAGGUCAAUUAGUGU [JMF's solution 102] (Eterna round: R96, puzzle: Exclusion NG 2)”, the “apparent KD of MS2 coat protein” value amounted to 998 nM (input ligand: FMN 200 uM), 314 nM under setting [2] and 476 nM (input ligand: none).
“GAUGGUCGAGGAUAUGCACCAGGGUCGACCUACUAGCGAAGACAUGAGGAUCACCCAUGUAGAAGGUGGCGGUU [Eternabot (L2) Solution 75] (Eterna round: R97, puzzle: Exclusion 2)”: the “apparent KD of MS2 coat protein” value is 73.9 nM (input ligand: FMN 200 uM) and 82.4 nM (input ligand: none).
“GGUCUGCGAGGAUAUACAUGAGGAUCACCCAUGUGCGAGUUACUAGUGAGGUCGGUUGGUAGAAGGCGCGGACG [JL-ex3-2.09 salish99 mod] (puzzle: Exclusion 3)”: the “apparent KD of MS2 coat protein” value by setting is: under setting [3], 69.3 nM; under setting [1], 52.3 nM; under setting [4], 32.9 nM.
As to “CCAAGUCCAUAGGAUAUCGACCAGUCCUCUGGAUGAGAAGGAUGAACUUGAGGAUCACCCAAGUGGCCUAAUAC [Eddilesove] (Eterna round: R97, puzzle: Exclusion 6)”, the “apparent KD of MS2 coat protein” value is, setting by setting: (input ligand: FMN 200 uM) 50.1 nM; (input ligand: none) 23.9 nM.
On the same counts, the results for “ACUUGUUGUCCUUGAUUUUACAUGAGGAUCACCCAUGUUAUUUUGAUUAUGAUGUGUAAGUUUGUUGCUCGUUUUAU [JR_STOV1_Sub067] (Eterna round: R97, puzzle: Sensor, turn-off variant 1)” are 61.9 nM and 67.4 nM.
“UCUUAUUGCAAGGAUAUGCUUUUUAUUUCUUUUGCAGAAGGUGCAACAUGAGGAUCACCCAUGUUUCCGGGCAU [JR_E6_Sub035] (Eterna round: R96, puzzle: Exclusion 6)”: the “apparent KD of MS2 coat protein” value runs as follows: (input ligand: FMN 200 uM) 34.4 nM; under setting [2], 16.4 nM; (input ligand: none) 21.5 nM.
In the case of “ACGAAACAUGAGGAUCACCCAUGUGAGGAUAUUAUGUUAUAAUACAUACUAUACAUAUUAAGAAGGCACAUUGG [Design #12] (Eterna round: R97, puzzle: Exclusion 1)”, the “apparent KD of MS2 coat protein” value came out at 138 nM (input ligand: FMN 200 uM) and 74.6 nM (input ligand: none).
Consider “AUCGUGUGAGGAUAUCGAUGUUGGACGUCUAGGUCUGUGCGCGAGAAGGCACAUGAGGAUCACCCAUGUAAUGG [jl-ex4-4.26 ViennaUCT mod] (Eterna round: R97, puzzle: Exclusion 4)”, for which the “apparent KD of MS2 coat protein” value was determined as 137 nM (input ligand: FMN 200 uM) and 347 nM (input ligand: none).
For “UUGUUGUAUGUAGGAUAUGCAUAUUAUUAUUAUGCAGAAGGACAUGAGGAUCACCCAUGUAUGUUAUUAUUAUGUGUUAUGUGU [Title] (Eterna round: R96, puzzle: Exclusion NG 1)”, the “apparent KD of MS2 coat protein” value under setting [2] was determined as 33.9 nM.
As to “ACAUGUUAUGUAGGAUAUUGGACACAUGAGGAUCACCCAUGUAACCGGAGGCUUUACUAUGAGUUCGAGAAGGGUAUGAACAUG [Ex NG2 #67] (Eterna round: R96, puzzle: Exclusion NG 2)”, the “apparent KD of MS2 coat protein” value by setting is: (input ligand: FMN 200 uM) 77.5 nM; under setting [2], 44.3 nM; (input ligand: none) 49.1 nM.
As for “GUAGCUCUCGAGGAUAUGGAUAGAAAAGUUAGUCCAGAAGGCGAGACAUGAGGAUCACCCAUGUUGGACUCUGC [Eternabot (L2) Solution 77] (Eterna round: R97, puzzle: Exclusion 6)”, the “apparent KD of MS2 coat protein” value (input ligand: FMN 200 uM) turned out to be 118 nM and the “apparent KD of MS2 coat protein” value (input ligand: none) was found to be 60.4 nM.
As to “GAUUCAUAUGACUUUCUAUACAUGAGGAUCACCCAUGUUUGUUUUUUUUGUUUUUCGCUUUUUAGUCGUCUUAUUAU [Gravy 3] (Eterna round: R97, puzzle: Sensor, turn-off variant 1)”, the “apparent KD of MS2 coat protein” value (input ligand: FMN 200 uM) turned out to be 19.6 nM and the “apparent KD of MS2 coat protein” value (input ligand: none) stood at 19 nM.
“AAUUCUAGGGUCAGACGCACAAGCUUUUUGCUCGUUUUAACAUGAGGAUCACCCAUGUCUAGUGGAUCUGAUCGGGC [JL ViennaUCT Isreen mod 8] (Eterna round: R96, puzzle: Sensor v3, turn-off variant 2)”: the “apparent KD of MS2 coat protein” value runs as follows: (input ligand: FMN 200 uM) 25.3 nM; under setting [2], 58.1 nM; (input ligand: none) 33.3 nM.
Regarding “UUGAUUGGUGUAGGAUAUGUAUGAGGAUCACCCAUUAAUAAAUUUUAACCACGAGGAUCACCCGUGUAGAAGGACAUUGGUUAU [pwkr exNG2 2xF5 1xFMN.21] (Eterna round: R96, puzzle: Exclusion NG 2)”, the “apparent KD of MS2 coat protein” value was 51.9 nM (input ligand: FMN 200 uM), 37.8 nM under setting [2] and 59.3 nM (input ligand: none).
For the sequence “UUCCUACAUGAGGAUCACCCAUGUCAGGAUAUCUCCUCACCGCGAAUGGGCAGUGAAUAGAGAAGGGACAGGAA [Aner] (puzzle: Exclusion 1)”, the “apparent KD of MS2 coat protein” value under setting [1] came to 13.5 nM.
For the sequence “UCGGCGCUAGGAUAUGCGUCGAAAGACAUGAGGAUCACCCAUGUGGUGCUCCUUAUUAAAGCAGAAGGAGCCCGUA [EX5 A.17] (Eterna round: R97, puzzle: Exclusion 5)”, the “apparent KD of MS2 coat protein” value came to 300 nM (input ligand: FMN 200 uM) and 152 nM (input ligand: none).
Consider “GGGCCCGGAGGAUAUACAUGAGGAUCACCCAUGUAGGGCCCGGGUAUUUUUGGGCCCUGUAGAAGGCCGGGCCC [-41.6, -38.7 kcal, A 19%, 5c,0] (Eterna round: R97, puzzle: Exclusion 3)”, for which the “apparent KD of MS2 coat protein” value (input ligand: FMN 200 uM) was 13 nM and the “apparent KD of MS2 coat protein” value (input ligand: none) turned out to be 12.6 nM.
Taken in the same sequence, the figures for “AAGUAACAUGAGGAUCACCCAUGUUAGGAUAUCUCGGCCGCGGCAUCGCCGCGAAACCAGAGAAGGAGCGGGUG [Erargeisar] (Eterna round: R97, puzzle: Exclusion 1)” were 206 nM and 160 nM.
Taken in the same sequence, the figures for “UGUGAGCAUGUCAGGAUAUGCAUCACAGUUAGGAUGUAGAAGGGACAUGAGGAUCACCCAUGUAGCUUCAGGUA [BmEX4 A.20] (Eterna round: R97, puzzle: Brourd's mod of Exclusion 4)” were 17.7 nM and 14.5 nM.
Take “UAUUAACAAGUAAGAUCCCACAUGAGGAUCACCCAUGUGCUCGUCUUAUAAGGUACUGUGACGAAAGUCACGGUACC [Sensor 3, v1 - 87] (puzzle: Sensor v3, turn-off variant 1)”: the “apparent KD of MS2 coat protein” value runs as follows: under setting [3], 16.9 nM; under setting [1], 953 nM; under setting [4], 13 nM.
